Experimental data published in patent US20090215197A1, “TARGET SUBSTANCE CAPTURING MOLECULE” (CANON KABUSHIKI KAISHA, published 2009).

B1: MBP-bound VHH-Jun/MBP-bound ankyrine Fos hetero dimer (other)
chain 1: PWQVQLQESGPGLLKPSETLFLTCTVSGFSISGGYYWGWFRQPPGKEREWIGSVYHSGSTYYNKSLESRVTISIHTSESQISLKLNSVTAADTAVYSCARYRTAHPLWGQGTMVTVSSEFGGGGSGGGGSGGGGSRIARLEEKVKTLKAQNSELASTANMLREQVAQLKQKVMNYFGC
chain 2: PWNAADNTGTTPLHLAAYSGHLEIVEVLLKHGADVDASDVFGYTPLHLAAYWGHLEIVEVLLKNGADVNAMDSDGMTPLHLAAKWGYLEIVEVLLKHGADVNAQDKFGKTAFDISIDNGNEDLAEILQEFGGGGSGGGGSGGGGSLTDTLQAETDQLEDKKSALQC
B2: MBP-bound VHH-Jun fusion protein and MBP-bound peptide-Fos fusion protein hetero dimer (other)
chain 1: B1 chain 1
chain 2: TPIHRRRQFNTGEFGGGGSGGGGSGGGGSLTDTLQAETDQLEDKKSALQTEIANLLKEKEKLEFILAAYRLC
B3: MBP bound antibody domain (VHH) (VHH)
VHH: QVQLQESGPGLLKPSETLFLTCTVSGFSISGGYYWGWFRQPPGKEREWIGSVYHSGSTYYNKSLESRVTISIHTSESQISLKLNSVTAADTAVYSCARYRTAHPLWGQGTMVTVSS

Experiments:
[1] = target: T1, Maltose-binding protein (MBP) (Escherichia coli (strain K12), UniProt P0AEX9 = MBP); assay: SPR (BIAcore), MBP immobilized on CM5 chip, 0.1% Tween 20/PBS, 25 C
[2] = target: T1, Maltose-binding protein (MBP); assay: SPR (BIAcore), same manner as in Example 10 (MBP immobilized on CM5 chip)
Method: In comparison with the single stranded MBP-bound VHH/MBP-bound ankyrine fused protein obtained in Example 4, and the MBP-bound VHH-Jun/MBP-bound ankyrine Fos hetero dimer obtained in Example 9, the MBP bound antibody domain (VHH), which is a single domain protein bound to MBP and represented by Sequence ID No. 2 and the MBP-bound ankyrine represented by Sequence ID No. 6 were evaluated by SPR (manufactured by BIAcore). As a substrate, CM5 (manufactured by BIAcore) is used. MBP is immobilized onto the substrate in accordance with the method recommended by the manufacturer. The MBP immobilized chip thus obtained is subjected to evaluation under the conditions: running Buffer: 0.1% Tween 20/PBS, flow rate: 20 μL/min, and temperature: 25° C. […] The capturing molecule according to the present invention has a high binding ability, compared to the capturing molecule known in the art binding to a target substance at a single epitope (or single site).
MBP-bound VHH-Jun fusion protein and MBP-bound peptide-Fos fusion protein hetero dimer obtained in Example 14 was evaluated for SPR (manufactured by BIAcore) in the same manner as in Example 10.

| Binder | Kd [1] [nM] | Kd [2] [nM] |
| --- | --- | --- |
| B1 | 1 |  |
| B2 |  | 10 |
| B3 | 1000 |  |
